Molecular target: the molecule itself
Experiment: X-ray fiber diffraction

B1: NCAP central low complexity domain segment (construct LCD, residues 171–263) (domain or fragment)
chain: TFYAEGSRGGSQASSRSSSRSRNSSRNSTPGSSRGTSPARMAGNGGDAALALLLLDRLNQLESKMSGKGQQQQGQTVTKKSAAEASKKPRQKRT
notes: also called central LCD; LCD segment; not shown: 6xHis-SUMO, N-terminal, cleaved
B1: binds.
